# Source: publication PMC4511006, “Peptide Inhibitor of Complement C1 (PIC1) Rapidly Inhibits Complement Activation after Intravascular Injection in Rats” (PLoS ONE, 2015)
# Ends that are not written are not given here.
# Assays:
# Details in all cases: both partners purified
# [1] = target: T1, C1q (UniProt P02745 23-245; P02746 28-253; P02747 29-245); test: ELISA; AcPA adsorbed to the plate at 2.5 uM; purified C1q (1 ug) added in 50 mM HEPES pH 7.0 with various concentrations of NaCl, 1 h, room temperature; detected with goat anti-C1q
# T1 construct: also called purified C1q; intact C1q
# [2] = target: Wild-type recombinant ficolin M (ficolin-1) (human, UniProt O00602 30-326); test: ELISA; ficolins adsorbed at 10 ug/mL, C1q at 25 nM, BSA at 30 ug/mL; biotinylated PA added at various concentrations in blocking buffer with 0.4 M NaCl, 1 h, room temperature; neutravidin-HRP
# [3] = target: Wild-type recombinant ficolin H (ficolin-3) (human, UniProt O75636 24-299); test: as above
# [4] = target: Wild-type recombinant ficolin L (ficolin-2) (human, UniProt Q15485 26-313); test: as above
# [5] = target: T1, C1q; test: cross-linking; C1q and biotinylated PA at a ratio of 1:25 in 0.1 M Na2HPO4, 0.15 M NaCl, pH 8.0, room temperature 2.5 h, with or without 20 uM BS3; SDS-PAGE and blot with streptavidin and anti-C1q
# T1 sequence (P02745 23-245, chain 1 of 3): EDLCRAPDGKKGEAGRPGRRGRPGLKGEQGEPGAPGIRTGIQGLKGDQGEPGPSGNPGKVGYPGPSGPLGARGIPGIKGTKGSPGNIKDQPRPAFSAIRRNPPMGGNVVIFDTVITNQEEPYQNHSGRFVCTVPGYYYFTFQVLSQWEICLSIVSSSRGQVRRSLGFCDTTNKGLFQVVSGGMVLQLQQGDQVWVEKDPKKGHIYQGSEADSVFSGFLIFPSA
# T1 sequence (P02746 28-253, chain 2 of 3): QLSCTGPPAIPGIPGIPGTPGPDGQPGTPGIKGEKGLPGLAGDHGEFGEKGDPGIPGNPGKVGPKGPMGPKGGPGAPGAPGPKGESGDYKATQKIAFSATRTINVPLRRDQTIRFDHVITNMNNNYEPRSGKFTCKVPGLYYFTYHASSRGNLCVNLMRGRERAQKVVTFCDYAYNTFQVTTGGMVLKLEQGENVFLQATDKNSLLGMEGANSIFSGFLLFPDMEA
# T1 sequence (P02747 29-245, chain 3 of 3): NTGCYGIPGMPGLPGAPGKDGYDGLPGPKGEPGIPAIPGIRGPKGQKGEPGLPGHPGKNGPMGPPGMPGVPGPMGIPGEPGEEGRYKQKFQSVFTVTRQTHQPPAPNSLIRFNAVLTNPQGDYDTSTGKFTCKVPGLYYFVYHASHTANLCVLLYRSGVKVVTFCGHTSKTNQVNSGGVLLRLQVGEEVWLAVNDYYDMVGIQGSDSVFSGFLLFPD
# Sequence of Wild-type recombinant ficolin L (ficolin-2) (Q15485 26-313): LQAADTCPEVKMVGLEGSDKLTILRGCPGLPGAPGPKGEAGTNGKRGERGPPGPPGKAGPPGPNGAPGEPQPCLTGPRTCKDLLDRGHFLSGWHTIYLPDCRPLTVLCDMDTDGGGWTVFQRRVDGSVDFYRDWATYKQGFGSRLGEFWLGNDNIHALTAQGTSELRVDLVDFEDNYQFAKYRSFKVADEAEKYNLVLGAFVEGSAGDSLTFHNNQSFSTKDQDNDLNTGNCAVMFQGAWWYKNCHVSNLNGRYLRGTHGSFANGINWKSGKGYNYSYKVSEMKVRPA
# Sequence of Wild-type recombinant ficolin M (ficolin-1) (O00602 30-326): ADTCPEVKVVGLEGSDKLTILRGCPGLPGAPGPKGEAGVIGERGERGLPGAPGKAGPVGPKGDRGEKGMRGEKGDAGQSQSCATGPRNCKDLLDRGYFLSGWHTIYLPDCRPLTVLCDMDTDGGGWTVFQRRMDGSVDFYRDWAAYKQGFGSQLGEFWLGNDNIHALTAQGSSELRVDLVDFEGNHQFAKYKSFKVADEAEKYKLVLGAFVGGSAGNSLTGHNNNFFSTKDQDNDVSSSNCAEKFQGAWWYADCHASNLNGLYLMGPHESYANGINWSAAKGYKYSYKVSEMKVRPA
# Sequence of Wild-type recombinant ficolin H (ficolin-3) (O75636 24-299): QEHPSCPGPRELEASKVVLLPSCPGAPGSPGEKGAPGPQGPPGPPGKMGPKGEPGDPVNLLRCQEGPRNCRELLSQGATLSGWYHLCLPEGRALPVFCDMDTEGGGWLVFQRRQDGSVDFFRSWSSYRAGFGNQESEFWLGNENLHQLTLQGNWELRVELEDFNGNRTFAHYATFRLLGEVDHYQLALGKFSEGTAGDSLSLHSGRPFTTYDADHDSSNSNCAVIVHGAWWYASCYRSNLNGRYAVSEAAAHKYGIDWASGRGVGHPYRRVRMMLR
Binder,binding result [1],binding result [2],binding result [3],binding result [4],binding result [5]
"IALILEPICCQERAA (cysteine pairing not given here; also: acetylated, position not given here, Polar Assortant (PA), 15 amino-acid derivative obtained by extensive modification of a 15-residue peptide of the human astrovirus type 1 coat protein; also called acetylated Polar Assortant peptide; PIC1; source: synthetic peptide, bought: New England Peptide (>=90% purity)) [Acetylated PA (AcPA)]",binds,–,–,–,–
"IALILEPICCQERAA-biotin (cysteine pairing not given here, Polar Assortant (PA), 15 amino-acid derivative of a human astrovirus type 1 coat protein peptide; Detected by its biotin (streptavidin IR 680 or neutravidin-HRP); source: synthetic peptide, bought: New England Peptide (>=90% purity)) [C-terminally biotinylated PA peptide]",–,binds,binds,binds,binds
